Measurements taken from the Human Domainome abundance scans (Beltran et al. 2025).
± gives the uncertainty stated by the source.

B1: Cyclin-F, residues 28 to 80; numbered along this chain, P41002 (parent)
chain: RNLTILSLPEDVLFHILKWLSVEDILAVRAVHSQLKDLVDNHASVWACASFQE

Variants of: B1
Assay: abundance fitness (aPCA) (normalised: wild type 0, dead -1); higher = more abundant; growth selection in yeast, the domain comes from the species named
Conditions: Homo sapiens

Abundance fitness, by site and new letter:
A30: N -0.356 ± 0.21 | V -0.125 ± 0.098 | T -0.04 ± 0.12 | R 0.053 ± 0.074 | P -0.844 ± 0.14 | W -0.836 ± 0.12 | K -0.339 ± 0.14 | F -0.62 ± 0.16 | M 0.188 ± 0.11 | Q -0.031 ± 0.11 | S 0.111 ± 0.081 | C 0.089 ± 0.13 | I -0.264 ± 0.14 | L 0.377 ± 0.075
Q34: S -0.06 ± 0.065 | W -0.753 ± 0.1 | R 0.109 ± 0.062 | N -0.417 ± 0.13 | T 0.004 ± 0.071 | A -0.111 ± 0.062 | E -0.455 ± 0.078 | I -0.129 ± 0.088 | Y -0.374 ± 0.12 | D -0.446 ± 0.087 | C -0.248 ± 0.086 | H -0.121 ± 0.1 | M -0.156 ± 0.075 | F -0.4 ± 0.1 | P -0.807 ± 0.11 | L -0.368 ± 0.064 | V -0.126 ± 0.061
K36: T -0.723 ± 0.16 | W -0.626 ± 0.22 | N -0.779 ± 0.23 | D -0.886 ± 0.28 | P -0.573 ± 0.16 | Y -0.883 ± 0.23 | I -0.986 ± 0.23 | L -0.625 ± 0.12 | A -0.561 ± 0.13 | S -0.788 ± 0.11 | H -0.445 ± 0.15 | E -0.771 ± 0.21 | Q -0.609 ± 0.23 | G -0.891 ± 0.14 | R 0.054 ± 0.084 | C -0.915 ± 0.18 | V -0.785 ± 0.12 | M -0.932 ± 0.2 | F -0.811 ± 0.21
N41: K 0.231 ± 0.16 | F -0.692 ± 0.19 | H -0.035 ± 0.18 | D -0.435 ± 0.19 | Y -0.569 ± 0.27 | T -0.131 ± 0.15 | M -0.272 ± 0.16 | P -0.59 ± 0.15 | Q 0.128 ± 0.14 | R 0.241 ± 0.09 | E -0.039 ± 0.17 | L -0.306 ± 0.1 | A -0.071 ± 0.21 | G -0.033 ± 0.11 | W -0.733 ± 0.2 | S 0.052 ± 0.1 | I -0.455 ± 0.21 | V -0.484 ± 0.15
S44: A -0.119 ± 0.099 | M -0.223 ± 0.12 | Q -0.306 ± 0.21 | H 0.222 ± 0.32 | L -0.499 ± 0.1 | Y -0.428 ± 0.15 | V -0.535 ± 0.096 | D 0.212 ± 0.13 | T -0.307 ± 0.12 | G 0.05 ± 0.084 | K -0.104 ± 0.11 | F -0.278 ± 0.12 | N 0.11 ± 0.24 | R -0.281 ± 0.079 | W -0.485 ± 0.14
R29: N -0.955 ± 0.19 | L -0.833 ± 0.11 | T -0.909 ± 0.2 | H -0.65 ± 0.14 | G -0.795 ± 0.12 | Q -0.801 ± 0.15 | M -0.541 ± 0.14 | P -0.716 ± 0.16 | Y -0.713 ± 0.21 | V -0.541 ± 0.12 | I -0.793 ± 0.18 | S -0.655 ± 0.1 | W -0.814 ± 0.15
D40: Y -0.862 ± 0.22 | W -1.03 ± 0.2 | S -0.432 ± 0.12 | A -0.917 ± 0.13 | G -0.77 ± 0.1 | H -0.552 ± 0.19 | C -0.912 ± 0.22 | P -0.791 ± 0.2 | M -0.884 ± 0.28 | L -0.919 ± 0.12 | T -0.444 ± 0.15 | Q -0.49 ± 0.2 | V -0.606 ± 0.095 | R -0.749 ± 0.11 | F -0.828 ± 0.22 | N -0.664 ± 0.15 | E -0.684 ± 0.17 | K -0.805 ± 0.27
W46: I -0.294 ± 0.13 | N -0.128 ± 0.18 | Y -0.469 ± 0.2 | F -0.364 ± 0.15 | C -0.4 ± 0.16 | R -0.058 ± 0.081 | S -0.314 ± 0.088 | G -0.065 ± 0.084 | M -0.27 ± 0.13 | T -0.3 ± 0.1 | E -0.016 ± 0.13 | D -0.043 ± 0.15 | H -0.38 ± 0.17 | L -0.114 ± 0.087 | P -0.386 ± 0.13 | Q -0.136 ± 0.15 | V -0.415 ± 0.1 | K -0.289 ± 0.2 | A -0.283 ± 0.1
L38: R -0.633 ± 0.11 | F 0.07 ± 0.13 | C 0.17 ± 0.099 | H -0.12 ± 0.2 | Y -0.151 ± 0.16 | T -0.133 ± 0.15 | D -0.758 ± 0.18 | P -0.935 ± 0.27 | S -0.302 ± 0.1 | I 0.244 ± 0.17 | E -0.872 ± 0.24 | N -0.906 ± 0.26 | Q -0.682 ± 0.2 | V 0.273 ± 0.088 | K -0.34 ± 0.17 | M -0.008 ± 0.13 | W -0.214 ± 0.12 | A -0.075 ± 0.094 | G -0.561 ± 0.095
L35: W -0.567 ± 0.13 | E -0.745 ± 0.14 | V -0.768 ± 0.11 | S -0.786 ± 0.14 | D -0.528 ± 0.29 | I -0.158 ± 0.22 | R -0.884 ± 0.14 | K -0.805 ± 0.2 | F -0.172 ± 0.16 | A -0.772 ± 0.12 | H -0.831 ± 0.34 | C -0.643 ± 0.22 | P -0.842 ± 0.18 | Q -0.861 ± 0.18 | Y -0.687 ± 0.41
V31: H -0.976 ± 0.22 | T 0.124 ± 0.11 | W -0.769 ± 0.19 | Y -0.964 ± 0.23 | Q -0.532 ± 0.15 | N -0.586 ± 0.31 | S 0.191 ± 0.09 | C -0.056 ± 0.1 | G -0.672 ± 0.11 | D -0.729 ± 0.2 | M -0.681 ± 0.16 | F -0.747 ± 0.17 | E -1.16 ± 0.24 | R -0.754 ± 0.14 | K -0.809 ± 0.24 | I -0.594 ± 0.11 | A -0.046 ± 0.089
A47: L -0.235 ± 0.096 | K -0.181 ± 0.16 | N -0.088 ± 0.21 | Y -0.458 ± 0.23 | W -0.374 ± 0.12 | C -0.218 ± 0.13 | T -0.43 ± 0.15 | I -0.178 ± 0.23 | F 0.386 ± 0.18 | R -0.14 ± 0.094 | E -0.365 ± 0.14 | D -0.062 ± 0.15 | M -0.095 ± 0.13 | V -0.513 ± 0.12 | H -0.29 ± 0.26 | G 0.193 ± 0.08 | S -0.114 ± 0.13
S33: C -0.828 ± 0.15 | N -0.67 ± 0.14 | A -0.648 ± 0.072 | W -0.48 ± 0.078 | K -0.294 ± 0.091 | G -0.554 ± 0.064 | M -0.72 ± 0.089 | E -0.675 ± 0.081 | V -0.544 ± 0.066 | T -0.247 ± 0.08 | R -0.158 ± 0.061 | Y -0.791 ± 0.12 | H -0.443 ± 0.11 | Q -0.672 ± 0.11 | I -0.855 ± 0.14 | F -0.801 ± 0.11
H42: W -0.45 ± 0.13 | M -0.64 ± 0.19 | D -0.746 ± 0.29 | E -0.8 ± 0.14 | Y -0.365 ± 0.11 | G -0.467 ± 0.094 | K -0.068 ± 0.12 | L -0.546 ± 0.11 | S -0.347 ± 0.098 | C -0.237 ± 0.15 | I -0.075 ± 0.25 | T -0.487 ± 0.13 | F -0.418 ± 0.13 | P -0.526 ± 0.15 | R -0.175 ± 0.085 | A -0.442 ± 0.087 | N -0.35 ± 0.19 | V -0.716 ± 0.095
D37: N -0.017 ± 0.13 | H -0.086 ± 0.17 | I 0.228 ± 0.34 | V -0.049 ± 0.1 | Q 0.075 ± 0.17 | P -1.02 ± 0.2 | T 0.076 ± 0.12 | L 0.03 ± 0.089 | G -0.044 ± 0.085 | C 0.012 ± 0.13 | S 0.006 ± 0.098 | M 0.158 ± 0.14 | K 0.356 ± 0.15 | W -0.42 ± 0.13 | F -0.222 ± 0.16 | A 0.027 ± 0.098
A43: I -0.577 ± 0.36 | C -0.006 ± 0.37 | N -0.303 ± 0.3 | P -0.039 ± 0.37 | T -0.416 ± 0.39 | L -0.605 ± 0.33 | V -0.616 ± 0.19 | W -0.264 ± 0.26 | E -0.343 ± 0.36 | R -0.273 ± 0.22 | G -0.409 ± 0.33
A49: C -0.185 ± 0.12 | D 0.248 ± 0.12 | E -0.125 ± 0.14 | F -0.663 ± 0.24 | H -0.091 ± 0.16 | G 0.089 ± 0.073
V45: N 0.031 ± 0.14 | H 0.137 ± 0.13 | M -0.082 ± 0.21 | F -0.016 ± 0.11 | G -0.149 ± 0.095 | K 0.181 ± 0.12 | I -0.026 ± 0.13 | S 0.149 ± 0.093 | R -0.031 ± 0.085 | T 0.131 ± 0.13 | D 0.289 ± 0.15 | W 0.1 ± 0.14 | Y 0.154 ± 0.17 | L -0.076 ± 0.088 | P -0.061 ± 0.11 | E 0.362 ± 0.11 | C -0.027 ± 0.11
H32: M -1.09 ± 0.3 | G -0.591 ± 0.11 | K -0.912 ± 0.2 | A -0.438 ± 0.1 | N 0.262 ± 0.1 | L -0.757 ± 0.13 | R -0.787 ± 0.11 | C 0.209 ± 0.13 | W -0.937 ± 0.19 | V -0.532 ± 0.1 | P -0.737 ± 0.15 | T -0.503 ± 0.14 | E -0.653 ± 0.14 | S 0.096 ± 0.081 | I -0.825 ± 0.23 | Y -0.895 ± 0.13
C48: N 0.184 ± 0.17 | T -0.066 ± 0.12 | H -0.302 ± 0.15 | Q -0.246 ± 0.17 | L 0.075 ± 0.085 | I -0.306 ± 0.18 | R -0.321 ± 0.1 | V -0.406 ± 0.093 | A -0.232 ± 0.11 | P 0.42 ± 0.12 | W -0.312 ± 0.11 | F -0.364 ± 0.13 | Y -0.367 ± 0.12 | K -0.307 ± 0.16 | S 0.14 ± 0.095 | M -0.238 ± 0.13 | D -0.14 ± 0.2 | G 0.179 ± 0.088
V39: M -0.781 ± 0.27 | L -0.287 ± 0.1 | T -0.787 ± 0.19 | S -0.445 ± 0.12 | W -0.648 ± 0.15 | F -0.819 ± 0.22 | R -0.793 ± 0.099 | C -0.245 ± 0.12 | P -0.931 ± 0.19 | D -0.655 ± 0.21 | E -0.819 ± 0.17 | A -0.341 ± 0.11 | I -0.074 ± 0.098 | Q -0.362 ± 0.3 | K -0.767 ± 0.15
